Molecular target: human CD20 (human) (UniProt P11836)

rituximab (antibody) was tested, and the % of cytotoxicity (dead CFSE+ 7-AAD+ Raji target cells), ADCC with PBMC effector cells at 25:1 for 6 hours was 25%.
